From a protein production outcome set (Wang et al. 2014) come the findings set out here.

This data set in a line: label from the status in PepcDB records.
Regarding “MDMNTLLSLSWHLMVPEFIILGAAILLSICDLFFKLNHRYVALGAIASVVLAIVSLITLYSEPTGDILNGSFVLDGFSKGFKTLLLGGAALILCIAMSDDKKNPIEDKGEYYYLFLMALLGAMFMASSVDFITLFVGLELLSLSSYILVGIRKKNLTSNEAAMKYVINGGIGTAITLFGMSYLYGITGSTNIVDMQKVFAGELAGGIQLLLALAFLLLLVGLSFKIATVPFHMWAPDVYEGAATPVTAFLGTISKIAGFLLIIRLFLMVFASVSVQGDTQSLYGRMSIYIAVLASITMIIGNVVALKQYNVKRLFAYSGIAHAGYLLVPLVALSPFTMDSMWFYMLAYMLMNIGAFAIIHGLILQSDKENITIFTGLYKRSPFTAIVMTIFILSLAGIPGTAGFIGKINIFLGALHVEPAHYVLASIMMGTTVISFVYYFRILQQMFFRTGEVEEKIRLPLNIKVVMSLCAISIVILGIMPMIGYNFFYEYFPLMKDFFFLGNVVQ”, the protein production entry is “failed”. “MSYLDTATDLPNQTLFLEYLNIALSNARRHHAQVGVLLCQINNWSDLKRKRGDAVANAFLQEAGQKLKSNLRNGDIVSRWDKDEFIFLVSKVQDTSSLLGIAQRLMKPVLAPVTAGGRPFQPEITYGVALYPVDGEQVNDLIGHIRENLQQLLPQPTNPGSGLEHHHHHH”: the protein production result was “not failed”. In the case of “MTASNPTILALDFDGVICDGLIEYFEVAWRTYCQIWSPAENTPPDDLALRFYRLRPVIETGWEMPVLIKALVDGNSDDQILQEWTSITPKILLDDKLQAKEIATKLDGLRDEWIANDLDGWLSLHRFYQGVIEKLKIAVASEVKLYIVTTKEGRFVEQLLHQEGVDLPRDAIFGKEVKRPKYEIIRELIQAADHEPVSLWFVEDRIKTLQLVQQQSDLEDVKLFLADWGYNTQSERKAAQSDPRIQLLSLSQFAKDFPGWV” it was “failed”; in that of “MITQRQNDILNLIVELFTQTHEPVGSKALQRTIDSSSATIRNDMAKLEKLGLLEKAHTSSGRMPSPAGFKYFVEHSLRLDSIDEQDIYHVIKAFDFEAFKLEDMLQKASHILSEMTGYTSVILDVEPARQRLTGFDVVQLSNHDALAVMTLDESKPVTVQFAIPRNFLTRDLIAFKAIVEERLLDGSVMDIHYKLRTEIPQIVQKYFVTTDNVLQLFDYVFSELFLETVFVAGKVNSLTYSDLSTYQFLDNEQQVAISLRQSLKEGEMASVQVADSQEAALADVSVLTHKFLIPYRGFGLLSLIGPIDMDYRRSVSLVNIIGKVLAAKLGDYYRYLNSNHYEVH”, “failed”; in that of “MSLKAIGFEQPFKLSDGNLFKTFNLDIPEPKVHEILVKIQSISVNPVDTKQRLMDVSKAPRVLGFDAIGVVESVGNEVTMFNQGDIVYYSGSPDQNGSNAEYQLINERLVAKAPKNISAEQAVSLPLTGITAYETLFDVFGISRNRNENEGKTLLIINGAGGVGSIATQIAKAYGLRVITTASRNETIEWTKKMGADIVLNHKESLLNQFKTQGIELVDYVFCTFNTDMYYDDMIQLVKPRGHIATIVAFENDQDLNALKPKSLSFSHEFMFARPLNQTDDMIKHHEYLEDITNKVEQNIYQPTTTKVIEGLTTENIYQAHQILESNTMIGKLVINLNEGHHHHHH”, “not failed”. On to “MRLSILRARSTGSGQASPRASRTRGARSAAAGGSWVVIFLPLHCGTRSLTMPRRARNAQTASSCSLERPNEWKEPPPVSGFEVTIVDAESVIAWVKAGKVTVFDVREPEEFAAAHIEGAIPNPLSRFDASLIPTDSPVPVVLHCRSGVRCGHAADRLRASGFQGKINRMAGGIIAWQAAGGPVVSG”, for which the protein production entry was “failed”. In the case of “MNTQEPAGLFTAVYEGDENTVVRLLRAGTAADARDEDGQTALYLAAVSNEPGIVRLLLAAGADPDRLSADADSPLCGAACGGHAEVVRALLAAGATADLEEEFGFRALTWAVQRGQVEILTELLAAGAHPDRPGPTGEAPLVAAARRGSPGCVRALLAHGAGARSPALDEARRWPALDVEAELRAGLEQMYGSGHEMVTHRIPEDGGITVEVQLRTGERTMAGNDQQTGHAAIITLLEAALGIATPVPELADRALRCGDPANDDWTEAVSVLVRRAGGETFTAATAWSRSPDPLRRALGTEILRKLGR” it was “failed”; in that of “MSRRGLLLMGQCMPCIKQNASKIRIRRMELDKNLNMYFKKDEFYFAHDPQKVCKTGDVVLIRELPERLTRLITHNVEKVVYPLGDITDPLTGKKVVVGNYREDIEMANQLFGKSEKAFDYEKAPPRGRLEGTKDFTHGETYIKYHEDGKDQPFAV”, “failed”; in that of “MKFYKKLIECIILLLFFVVFTLFIKYYFKPFLSIVILTILCSPIYNLLSKHKVFGDRINAVLSIIVINVMIFLAIFLIGNFIAQKLNIYLQHYHNVLDINKLPIIGESNVNILLNKINVFVDKLFNADFFKKSAVYTTDGILTYFVSIMSVYFILVDKYDIVNLAEKLFTKNKVHILMKKFSDIKSLLRVETFLVLITTIQTIIGFFVLGIEDCFMLGIICGILDILPYVGTIIIFIPLIIYKMYEKNYVTIFGLIALYIFLQVSRQIMETNFMSSKLKIHPLIILISVYIGIKAFGIIGLFIAPIYVITAKEIILSS”, “failed”. “MNANIMLNEDITPIGSDYDTVRGVIELLTLDYREQPSLEAIAARLGQSPTQLQKTFTRWAGLSPKAFLQAVTLDHAKRLLREEDLPLLETSIEVGMSGPGRLHDLFVTHEAMSPGEWKAKGGGLTIRYGFHASPFGLALVMITDRGLAGCAFADPGDERACFEDMAGRWPNADYVEDREATAPYAARIFEPAMWTADKPLRVVLLGTDFQVRVWKSLLKIPMGRAVTYSNIACDIGQPTASRAVGAAVGANPVSFVVPCHRAVGKSGALTGYHWGLTRKRAMLGWETGKALEHHHHHH”: the protein production result is “failed”. For the sequence “ADEEESTPCDNVETDQQTFACAAFNKQVAERELQSAYDELIERMRDQFGDEAGLMSRIEAAEKVWSQLRDADCKVETHAEQPGSNAYQIAWNSCIAQRSDERAEYLRSLGSQNSDEPAPED”, the protein production entry was “not failed”. In the case of “QLAEVEVKKFKQMTEAIGPSTIRDLAVAGPEMQVKLLQSLGLKSTLITDGSTPINLFNTAFGLLGMGPEGQPLGRRVASGPSPGEGISPQSAQAPQAPGDNHVVPVLR” it was “failed”; in that of “MLDTYGRKYVNPIIDLGANTLLKLRLTPNGVSIIALIIGVLSSVFLYFDKLILSVVFLWISGYLDSVDGAMARKKNLTSPFGTLLDITFDRIVELSIIFVLALKFQNSRLYLLILTMMILISMTIFLTVGALAQNNGMKSFRYQAGLAERSEGFICFSLMILLSSIKLNLVTNIFSLIIFITIIQRALEAKRLLK”, “failed”. The same measure for “MFLDYFALGLLIFVALVIFYGIIVIHDIPYEIAKEREHPHQDAIHYAGWVSLFTLHALWPFLWIWATLWRKERGWGFQKLEAEQHDIHHRVDVLIDEVKQLRTELETLKTSSLSVPKSTPAASTSEEKQ”: “failed”; for “MMNTPESRLVAAGLELPEVAAALGNYEPYSIVGSQLMTSGQFPYLQGKLLYQGQLGADYTVSEGYAACRLATLNAIAQLKQACGELSRIKQIYRLEGVLNVHQSCIEHPKALDGASDLLLEIFGEAGRHSRMIWTNPVMPLNSLCLVYLFAEL”: “not failed”; for “LAKILGMDSDGLNRLECFDISHTQGEATIASCVVYDEQNIQPSQYRRYNITTAKPGDDYAAMREVLTRRYGKMQEAEANGETVKWPDAVLIDGGKGQIGVAVSVWEELGLHIPLVGIAKGPERKAGMEELILPFTGEVFRLPPNSPALHLLQTVRDESHRFAI”: “failed”. As to “VDIMLNTADISAAAILLPVEGAQLSELRQIPAEGGPVLHMLRLDSPQFSQFGEIYFSEVLPRRVKAWKRHSLMTQLFAVPVGCIHVVLYDGREKSPTSGRLAQVTLGRPDNYRLLRIPPQVWYGFAATGDTPALVANCTDIPHRQGESERAPQDAPFIPFSWAGADLSGTPVM”, the protein production result is reported as “not failed”. On to “MSDHEVTGGVSLKERVAIVLVEPQSPGNVGMVCRAMKNMGLGELRIVKGCRLDHPEALKFAVSARDLLERARVFESLEDALSDTELSVATTRRHGKYRQEIFSPKEIVSKFAANLAGNRAALVFGREDNGLTTDELSLCRWHATIPSSEEYGSLNLAQAVMVFCYELFTSLGSRTVGGEDRPLAGSAETEPLFEHMERTLMRIGYLNPQNPAHLMRSLRRIFARSELDSREVAILRGMMTQIDWAADQFKGKKGA”, for which the protein production entry is given as “failed”. “MLTTQGVPEFCYITIIGLILFMIFKEVLSQSKFWRKDLESSSNMVILPLLISFSAIVAYKIAEIL”: the protein production entry is given as “failed”. The same measure for “MARLHPIYSGQSDRPAILFVHGLDGHWLETWRHDACSKDDCWPHWVGEETGCDIWSLEYDAALSGWLDQAMPLPDQGSQVMDLLASAPALKGKPLVFVTHSLGGILVKTALVYGAEEDRRFQHIVDHVLGVVFIATPHSGAQLATLARVIKYLLRINPPVGNLEHHDPHLRTLNRRYQTLVKERGIEGYVYAEKRGVKIGPRGFGGWLRRIEPTVMVVDPGSTDPSLPEIQPISLAEDHISICKPPDRQQQIHLSLCHVLKEKIIPLAGDRGMGTTGVGLKLLESGTAQENPAAHMPPGRLVGPDDNRLSPREGKVYGRKTQENDVLAFLKGSEPVKVVGGVAGVGKTEVCKAALKTWLHTSPRPVAYYVRVPDRARSADLVLQVGKAVGIENCESLAQLLGVIPVGLYYLDNLESVADDQEGRNALRDLAQKPGVRILASSRTRLDTIFGAPIEIKCLSAPDALALFRDLWPPTQTLPKDDELQAFVIGKLGGHALSLVLVARLGMCLSFDALRRRWDEEGAALACDGVEDDTRTSNLTFNLRLTAEVLAPTPGALSVWVLMALFEEGIPEAVLEEVERRGQWPTLARHRLAVHHLISKRGDRWFLPPPVARYARYAAVTEQDGFCWRKSRQPILDLFLVFAEKASSFDSSPETLKAKKWILEFFNTISIVIECELESNVQNKFWLNRMSYFLRDIYQQRIAVSPALLRKLADAGIQPANTLRSLGDLASRLGQVDKARSLYEKALGLSQQEQSGLGQANALKALGDLASRLGQVDKARSLYETALGLFQQEQHGLGQANTLHGLGDLASQLGQVDKARSLYEKALGLFQQEPNGLGQANTLKSLGALEYRLGQVDKARSLYEKAVDLYRIEQEPLGLAYSLTNLALCFEVLKNLSKRNQVLKAAFVASRDANNEIVQIYLKEAIPEMPGADVLYDSWLKGQSR”: “failed”; for “MNIYSLFVVAIALSLDAFGVALSIGLDSCVKRKNKLLFAISFGFFQFLCTFIGAYSGFLFNTYITYVPQIIGGMIIAFVGAFMIKEGFDNKEEKLLLNFKMYFVLGISVSIDAAVVGFTMFNKISSNYVILGDSVFIGIVTLILSIIAFIISRYLKRIQLVCKYADYIGGIILVIFGLKMMFF”: “failed”; for “MLWFGQPGPGGWNRKCLRPFTLPRGQHPQPSYGFPQVNEVVFSPGESHCATCSEDGSVRVWALASMELVIQFQVLNQSCLCLAWSPPCCGRPEQQRLAAGYGDGSLRIFSVSRTAMELKMHPHPVALTTVAFSTDGQTVLSGDKDGLVAVSHPCTGTTFRVLSDHQGAPISTICVTCKETQGHLPPSLAAFCPWDGALLMYVGPGVYKEVIIYNLCQKQVVEKIPLPFFAMSLSLSPGTHLLAVGFAECMLRLVDCAMGTAQDFAGHDNAVHLCRFTPSARLLFTAARNEILVWEVPGL”: “failed”. In the case of “MSGNSDEATAPGADWDALAASFDDEPDHGLRDAEVRRAWAARLASWLPAPPGDVLDLGCGTGSLSLLAAEQGHRVTGVDLSPAMVELARTKLAGRDAVFLTGDAAAPPVGEQRFDAVLVRHVLWTLPDPGRALRHWRQLLRPGGRLVLVEGVWGSVSPVGIPADRVTALLGPLTGQARVERLSDDPSLWGREVADERYAVVATYG”, the protein production result is “failed”.

In the case of “EPPDERAVADGWQQLVELGAVDSQHVLTAIGREMARLPVDVKSARMLVAARQHGCVHEMTVIAAFLGVQDPRERPPEAREAADNAHAKFADAR”, the protein production result is listed as “not failed”.
